Reference: paper PMC5206705 (Scientific Reports, 2017)

Biological target: the molecule itself
Experiment: SEC; preparative Superdex 200 in 50 mM Tris pH 8.0, 125 mM sodium chloride; elution at approximately 80 kDa against a 44 kDa monomer

B1: β-ketoacyl-acyl carrier protein synthase FabF from Listeria monocytogenes (enzyme, UniProt A0A0B8RFI6 1-413, looked up)
chain: MDKRRVVVTGIGAVTPIGNDAETSWENAKKGVNGVAKMTRLNPDDFPVKIAAELKDFDVEKYLEKKEARKMDRFTHYAIASAEMAVQDSGLVIDDSNANRVGVWIGSGIGGMETFETQYEIFLNRGHRRVSPFFVPMMIPDMGSGQVSIRFGAKGINSTTVTACATATNSIGDAFKVIERGDADAMITGGAEAPITKMSLAGFTANKALSLNPDPETACRPFDKDRDGFIIGEGAGIVILEEYEHAKARGAKIYAEIVGYGATGDAYHITAPAPNGEGAARAMKMAIDDAGLTPDKVDYINAHGTSTPYNDEYETQAIKTVFGDHAKKLAISSTKSMTGHTLGASGGIEAIFALLTIRDNIIAPTIHLKNQDEVCDLDYVPNEAREANVNVVISNSFGFGGHNATLVFKRIED
notes: FabF (β-ketoacyl-ACP synthase II) of Listeria monocytogenes, amplified from genomic DNA ATCC 19115D-5 with primers from the start to the stop codon; the construct encoded the full length protein; monomer about 44 kDa; Vector pMCSG21 with a TEV site; a few residues of the site may remain at the N-terminus after cleavage (surmise); also called LmFabF; β-ketoacyl-ACP synthase II; source: E. coli …
**Q.** For B1, which “stoichiometry N” value is on record?
**A.** 2
